Tests used:
HeLa Kyoto [1] = test: solubility change mitosis vs G1/S (difference of NP-40 vs SDS log2 ratios) (log2 ratio difference); higher = more soluble in mitosis
HeLa Kyoto [2] = test: thermal stability score vs G1/S (z-score of summed log2 fold changes over temperatures); higher = more thermally stable than in G1/S
HeLa Kyoto [3] = test: solubility in G1/S (NP-40 vs SDS abundance) (log2 ratio); higher = more soluble; conditions: cell cycle stage: G1/S
HeLa Kyoto [4] = test: melting temperature (median over replicates), in situ; higher = more thermally stable
[5] = cell cycle stage: early G1 (4.5 h after nocodazole release)
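Throughout, for melting temperature (median over replicates), in situ: HeLa Kyoto cells synchronized by double thymidine or nocodazole block, proteins quantified by TMT10plex mass spectrometry, three independent biological replicates.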
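Throughout, for solubility change mitosis vs G1/S (difference of NP-40 vs SDS log2 ratios): synchronized HeLa Kyoto cells (double thymidine block for G1/S, nocodazole release for mitosis), protein amounts in NP-40 versus SDS lysates quantified by mass spectrometry, three biological replicates.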
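Throughout, for solubility in G1/S (NP-40 vs SDS abundance): HeLa Kyoto cells arrested at G1/S by double thymidine block, proteins quantified by TMT10plex mass spectrometry in mild NP-40 versus SDS extracts, three biological replicates.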
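Throughout, for thermal stability score vs G1/S (z-score of summed log2 fold changes over temperatures): synchronized HeLa Kyoto cells, proteins quantified by TMT10plex mass spectrometry, three biological replicates, mitosis taken 0.5 h after nocodazole release, G1/S directly after double thymidine block.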

Sequence | solubility change mitosis (log2) (HeLa Kyoto [1]) | thermal stability score (HeLa Kyoto [2]; [5]) | thermal stability score (HeLa Kyoto [2]; cell cycle stage: mitosis) | solubility in G1/S (log2) (HeLa Kyoto [3]) | melting temperature (HeLa Kyoto [4]; cell cycle stage: G1/S) [°C] | melting temperature (HeLa Kyoto [4]; cell cycle stage: mitosis) [°C]
MESKALLVLTLAVWLQSLTASRGGVAAADQRRDFIDIESKFALRTPEDTAEDTCHLIPGVAESVATCHFNHSSKTFMVIHGWTVTGMYESWVPKLVAALYKREPDSNVIVVDWLSRAQEHYPVSAGYTKLVGQDVARFINWMEEEFNYPLDNVHLLGYSLGAHAAGIAGSLTNKKVNRITGLDPAGPNFEYAEAPSRLSPDDADFVDVLHTFTRGSPGRSIGIQKPVGHVDIYPNGGTFQPGCNIGEAIRVIAERGLGDVDQLVKCSHERSIHLFIDSLLNEENPSKAYRCSSKEAFEKGLCLSCRKNRCNNLGYEINKVRAKRSSKMYLKTRSQMPYKVFHYQVKIHFSGTESETHTNQAFEISLYGTVAESENIPFTLPEVSTNKTYSFLIYTEVDIGELLMLKLKWKSDSYFSWSDWWSSPGFAIQKIRVKAGETQKKVIFCSREKVSHLQKGKAPAVFVKCHDKSLNKKSG [LPL] | -0.028 | -1.96 | -2.52 | -0.0225 | 53.9 | 53.7
MAVLAALLRSGARSRSPLLRRLVQEIRYVERSYVSKPTLKEVVIVSATRTPIGSFLGSLSLLPATKLGSIAIQGAIEKAGIPKEEVKEAYMGNVLQGGEGQAPTRQAVLGAGLPISTPCTTINKVCASGMKAIMMASQSLMCGHQDVMVAGGMESMSNVPYVMNRGSTPYGGVKLEDLIVKDGLTDVYNKIHMGSCAENTAKKLNIARNEQDAYAINSYTRSKAAWEAGKFGNEVIPVTVTVKGQPDVVVKEDEEYKRVDFSKVPKLKTVFQKENGTVTAANASTLNDGAAALVLMTADAAKRLNVTPLARIVAFADAAVEPIDFPIAPVYAASMVLKDVGLKKEDIAMWEVNEAFSLVVLANIKMLEIDPQKVNINGGAVSLGHPIGMSGARIVGHLTHALKQGEYGLASICNGGGGASAMLIQKL [ACAT1] | -0.0153 | -1.2 | 0.833 | 0.493 | 54.5 | 54.8
MVDKKLVVVFGGTGAQGGSVARTLLEDGTFKVRVVTRNPRKKAAKELRLQGAEVVQGDQDDQVIMELALNGAYATFIVTNYWESCSQEQEVKQGKLLADLARRLGLHYVVYSGLENIKKLTAGRLAAAHFDGKGEVEEYFRDIGVPMTSVRLPCYFENLLSHFLPQKAPDGKSYLLSLPTGDVPMDGMSVSDLGPVVLSLLKMPEKYVGQNIGLSTCRHTAEEYAALLTKHTRKVVHDAKMTPEDYEKLGFPGARDLANMFRFYALRPDRDIELTLRLNPKALTLDQWLEQHKGDFNLL [NMRAL1] | -0.127 | 4.25 | 3.59 | 0.417 | 48.9 | 49.3
MMRLRGSGMLRDLLLRSPAGVSATLRRAQPLVTLCRRPRGGGRPAAGPAAAARLHPWWGGGGWPAEPLARGLSSSPSEILQELGKGSTHPQPGVSPPAAPAAPGPKDGPGETDAFGNSEGKELVASGENKIKQGLLPSLEDLLFYTIAEGQEKIPVHKFITALKSTGLRTSDPRLKECMDMLRLTLQTTSDGVMLDKDLFKKCVQSNIVLLTQAFRRKFVIPDFMSFTSHIDELYESAKKQSGGKVADYIPQLAKFSPDLWGVSVCTVDGQRHSTGDTKVPFCLQSCVKPLKYAIAVNDLGTEYVHRYVGKEPSGLRFNKLFLNEDDKPHNPMVNAGAIVVTSLIKQGVNNAEKFDYVMQFLNKMAGNEYVGFSNATFQSERESGDRNFAIGYYLKEKKCFPEGTDMVGILDFYFQLCSIEVTCESASVMAATLANGGFCPITGERVLSPEAVRNTLSLMHSCGMYDFSGQFAFHVGLPAKSGVAGGILLVVPNVMGMMCWSPPLDKMGNSVKGIHFCHDLVSLCNFHNYDNLRHFAKKLDPRREGGDQRVKSVINLLFAAYTGDVSALRRFALSAMDMEQRDYDSRTALHVAAAEGHVEVVKFLLEACKVNPFPKDRWNNTPMDEALHFGHHDVFKILQEYQVQYTPQGDSDNGKENQTVHKNLDGLL | -0.0383 | 0.55 | 2.21 | 0.0237 | 49.7 | 50.4
MAGDLSAGFFMEELNTYRQKQGVVLKYQELPNSGPPHDRRFTFQVIIDGREFPEGEGRSKKEAKNAAAKLAVEILNKEKKAVSPLLLTTTNSSEGLSMGNYIGLINRIAQKKRLTVNYEQCASGVHGPEGFHYKCKMGQKEYSIGTGSTKQEAKQLAAKLAYLQILSEETSVKSDYLSSGSFATTCESQSNSLVTSTLASESSSEGDFSADTSEINSNSDSLNSSSLLMNGLRNNQRKAKRSLAPRFDLPDMKETKYTVDKRFGMDFKEIELIGSGGFGQVFKAKHRIDGKTYVIKRVKYNNEKAEREVKALAKLDHVNIVHYNGCWDGFDYDPETSDDSLESSDYDPENSKNSSRSKTKCLFIQMEFCDKGTLEQWIEKRRGEKLDKVLALELFEQITKGVDYIHSKKLIHRDLKPSNIFLVDTKQVKIGDFGLVTSLKNDGKRTRSKGTLRYMSPEQISSQDYGKEVDLYALGLILAELLHVCDTAFETSKFFTDLRDGIISDIFDKKEKTLLQKLLSKKPEDRPNTSEILRTLTVWKKSPEKNERHTC [EIF2AK2] | -0.0511 | 1.01 | 3.12 | -0.283 | 47.1 | 48
MAELTALESLIEMGFPRGRAEKALALTGNQGIEAAMDWLMEHEDDPDVDEPLETPLGHILGREPTSSEQGGLEGSGSAAGEGKPALSEEERQEQTKRMLELVAQKQREREEREEREALERERQRRRQGQELSAARQRLQEDEMRRAAEERRREKAEELAARQRVREKIERDKAERAKKYGGSVGSQPPPVAPEPGPVPSSPSQEPPTKREYDQCRIQVRLPDGTSLTQTFRAREQLAAVRLYVELHRGEELGGGQDPVQLLSGFPRRAFSEADMERPLQELGLVPSAVLIVAKKCPS [UBXN1] | 0.313 | -1.73 | -2.31 | 0.608 | 52.1 | 51.3
MAGPGPGAVLESPRQLLGRVRFLAEAARSLRAGRPLPAALAFVPREVLYKLYKDPAGPSRVLLPVWEAEGLGLRVGAAGPAPGTGSGPLRAARDSIELRRGACVRTTGEELCNGHGLWVKLTKEQLAEHLGDCGLQEGWLLVCRPAEGGARLVPIDTPNHLQRQQQLFGVDYRPVLRWEQVVDLTYSHRLGSRPQPAEAYAEAVQRLLYVPPTWTYECDEDLIHFLYDHLGKEDENLGSVKQYVESIDVSSYTEEFNVSCLTDSNADTYWESDGSQCQHWVRLTMKKGTIVKKLLLTVDTTDDNFMPKRVVVYGGEGDNLKKLSDVSIDETLIGDVCVLEDMTVHLPIIEIRIVECRDDGIDVRLRGVKIKSSRQRELGLNADLFQPTSLVRYPRLEGTDPEVLYRRAVLLQRFIKILDSVLHHLVPAWDHTLGTFSEIKQVKQFLLLSRQRPGLVAQCLRDSESSKPSFMPRLYINRRLAMEHRACPSRDPACKNAVFTQVYEGLKPSDKYEKPLDYRWPMRYDQWWECKFIAEGIIDQGGGFRDSLADMSEELCPSSADTPVPLPFFVRTANQGNGTGEARDMYVPNPSCRDFAKYEWIGQLMGAALRGKEFLVLALPGFVWKQLSGEEVSWSKDFPAVDSVLVKLLEVMEGMDKETFEFKFGKELTFTTVLSDQQVVELIPGGAGIVVGYGDRSRFIQLVQKARLEESKEQVAAMQAGLLKVVPQAVLDLLTWQELEKKVCGDPEVTVDALRKLTRFEDFEPSDSRVQYFWEALNNFTNEDRSRFLRFVTGRSRLPARIYIYPDKLGYETTDALPESSTCSSTLFLPHYASAKVCEEKLRYAAYNCVAIDTDMSPWEE [HECTD3] | -0.123 | 0.000139 | -0.669 | -0.0837 | 51.8 | 51
MLDFFTIFSKGGLVLWCFQGVSDSCTGPVNALIRSVLLQERGGNNSFTHEALTLKYKLDNQFELVFVVGFQKILTLTYVDKLIDDVHRLFRDKYRTEIQQQSALSLLNGTFDFQNDFLRLLREAEESSKIRAPTTMKKFEDSEKAKKPVRSMIETRGEKPKEKAKNSKKKGAKKEGSDGPLATSKPVPAEKSGLPVGPENGVELSKEELIRRKREEFIQKHGRGMEKSNKSTKSDAPKEKGKKAPRVWELGGCANKEVLDYSTPTTNGTPEAALSEDINLIRGTGSGGQLQDLDCSSSDDEGAAQNSTKPSATKGTLGGMFGMLKGLVGSKSLSREDMESVLDKMRDHLIAKNVAADIAVQLCESVANKLEGKVMGTFSTVTSTVKQALQESLVQILQPQRRVDMLRDIMDAQRRQRPYVVTFCGVNGVGKSTNLAKISFWLLENGFSVLIAACDTFRAGAVEQLRTHTRRLSALHPPEKHGGRTMVQLFEKGYGKDAAGIAMEAIAFARNQGFDVVLVDTAGRMQDNAPLMTALAKLITVNTPDLVLFVGEALVGNEAVDQLVKFNRALADHSMAQTPRLIDGIVLTKFDTIDDKVGAAISMTYITSKPIVFVGTGQTYCDLRSLNAKAVVAALMKA [SRPR] | -0.0915 | 1.98 | 2.56 | 0.119 | 50.5 | 50.9
MAPRRVRSFLRGLPALLLLLLFLGPWPAASHGGKYSREKNQPKPSPKRESGEEFRMEKLNQLWEKAQRLHLPPVRLAELHADLKIQERDELAWKKLKLDGLDEDGEKEARLIRNLNVILAKYGLDGKKDARQVTSNSLSGTQEDGLDDPRLEKLWHKAKTSGKFSGEELDKLWREFLHHKEKVHEYNVLLETLSRTEEIHENVISPSDLSDIKGSVLHSRHTELKEKLRSINQGLDRLRRVSHQGYSTEAEFEEPRVIDLWDLAQSANLTDKELEAFREELKHFEAKIEKHNHYQKQLEIAHEKLRHAESVGDGERVSRSREKHALLEGRTKELGYTVKKHLQDLSGRISRARHNEL [LRPAP1] | -0.0876 | 2.72 | -0.375 | 0.724 | 55.3 | 54.1
MAGKAHRLSAEERDQLLPNLRAVGWNELEGRDAIFKQFHFKDFNRAFGFMTRVALQAEKLDHHPEWFNVYNKVHITLSTHECAGLSERDINLASFIEQVAVSMT [PCBD1] | 0.0567 | 1.22 | -0.726 | 0.0398 | 54.6 | 55.6
MAAVVLAATRLLRGSGSWGCSRLRFGPPAYRRFSSGGAYPNIPLSSPLPGVPKPVFATVDGQEKFETKVTTLDNGLRVASQNKFGQFCTVGILINSGSRYEAKYLSGIAHFLEKLAFSSTARFDSKDEILLTLEKHGGICDCQTSRDTTMYAVSADSKGLDTVVALLADVVLQPRLTDEEVEMTRMAVQFELEDLNLRPDPEPLLTEMIHEAAYRENTVGLHRFCPTENVAKINREVLHSYLRNYYTPDRMVLAGVGVEHEHLVDCARKYLLGVQPAWGSAEAVDIDRSVAQYTGGIAKLERDMSNVSLGPTPIPELTHIMVGLESCSFLEEDFIPFAVLNMMMGGGGSFSAGGPGKGMFSRLYLNVLNRHHWMYNATSYHHSYEDTGLLCIHASADPRQVREMVEIITKEFILMGGTVDTVELERAKTQLTSMLMMNLESRPVIFEDVGRQVLATRSRKLPHELCTLIRNVKPEDVKRVASKMLRGKPAVAALGDLTDLPTYEHIQTALSSKDGRLPRTYRLFR [PMPCA] | -0.174 | 0.057 | -1.17 | -0.0271 | 52.2 | 51.8
MDGLLNPRESSKFIAENSRDVFIDSGGVRRVAELLLAKAAGPELRVEGWKALHELNPRAADEAAVNWVFVTDTLNFSFWSEQDEHKCVVRYRGKTYSGYWSLCAAVNRALDEGIPITSASYYATVTLDQVRNILRSDTDVSMPLVEERHRILNETGKILLEKFGGSFLNCVRESENSAQKLMHLVVESFPSYRDVTLFEGKRVSFYKRAQILVADTWSVLEGKGDGCFKDISSITMFADYRLPQVLAHLGALKYSDDLLKKLLKGEMLSYGDRQEVEIRGCSLWCVELIRDCLLELIEQKGEKPNGEINSILLDYYLWDYAHDHREDMKGIPFHRIRCIYY [C9ORF64] | -0.283 | -1.65 | 0.153 | -0.318 | 50.2 | 49.7
MASQLQNRLRSALALVTGAGSGIGRAVSVRLAGEGATVAACDLDRAAAQETVRLLGGPGSKEGPPRGNHAAFQADVSEARAARCLLEQVQACFSRPPSVVVSCAGITQDEFLLHMSEDDWDKVIAVNLKGTFLVTQAAAQALVSNGCRGSIINISSIVGKVGNVGQTNYAASKAGVIGLTQTAARELGRHGIRCNSVLPGFIATPMTQKVPQKVVDKITEMIPMGHLGDPEDVADVVAFLASEDSGYITGTSVEVTGGLFM [HSD17B8] | 0.119 | -0.337 | -1.5 | 0.368 | 55.3 | 56.3
